Results on two molecules are retold here after patent US20170312343A1, “Uses of FAHD1” (UNIVERSITÄT INNSBRUCK, priority 2014, published 2017).

One data set concerns the target T1, FAHD1 (Homo sapiens, UniProt Q6P587).
T1 construct: His-tag (N); S-tag (N); made in house; host or cells: E. coli
T1 sequence (Q6P587 25-221): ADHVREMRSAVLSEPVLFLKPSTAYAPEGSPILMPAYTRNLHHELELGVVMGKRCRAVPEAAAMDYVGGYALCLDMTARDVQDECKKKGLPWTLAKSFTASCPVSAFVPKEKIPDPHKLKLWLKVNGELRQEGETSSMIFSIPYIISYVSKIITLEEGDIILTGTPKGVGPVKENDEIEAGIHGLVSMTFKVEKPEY
The experiment in a line: oxalate inhibitor assay (oxaloacetate decarboxylase assay). It is filed as biochemical. As to conditions: purified recombinant wild-type FAHD1, room temperature, pH 7.4, absorbance 255 nm, FIG. 2C; read-out: IC50, inhibition of oxaloacetate decarboxylation by FAHD1. On the procedure: (§1) N-terminally His- and S-tagged versions of human wild-type FAHD1 and a double mutant (Asp102Ala, Arg106Ala) were recombinantly expressed in E. coli and purified as reported previously (Pircher et al., J Biol Chem, 2011, 286(42)).
(§2) For measurement of oxaloacetate decarboxylase rates, 1 ml samples of 25 μM to 1 mM oxaloacetate in assay buffer (50 mM Tris-HCl, 100 mM KCl, 1 mM MgCl2, pH 7.4) containing purified FAHD1, FAHD1mut (3-60 μg, depending on substrate concentration) or no enzyme were prepared. Samples were incubated at room temperature and analysed in regular time intervals by measuring absorbance (infinite M200, Tecan) at 255 nm (ε=1070 M^−1 cm^−1) in disposable UV-cuvettes (Brand). Reaction mixtures containing no substrate were used as blank. For the oxalate inhibitor assay, the sample buffer was supplemented with 200 μM sodium oxalate. All rates were corrected for auto-decarboxylation under assay conditions.

Data set [1] in a line: oxaloacetate decarboxylase assay, photometric, enzyme kinetics of purified FAHD1. The class given is biochemical, human. The conditions noted are these: purified wild-type enzyme, room temperature, pH 7.4, FIG. 2A. Here is the method:
as §1, §2

As a reminder, the IC50 is the concentration that inhibits the measured activity by half. For the molecule `O=C([O-])C(=O)[O-].[Na+].[Na+]` [oxalate, sodium oxalate], the IC50 on FAHD1 is about 20 µM.

B1: fumarylacetoacetate hydrolase domain containing protein 1 (protein, UniProt Q6P587 25-221, looked up)
Oxaloacetate tautomerase …: ADHVREMRSAVLSEPVLFLKPSTAYAPEGSPILMPAYTRNLHHELELGVVMGKRCRAVPEAAAMDYVGGYALCLDMTARDVQDECKKKGLPWTLAKSFTASCPVSAFVPKEKIPDPHKLKLWLKVNGELRQEGETSSMIFSIPYIISYVSKIITLEEGDIILTGTPKGVGPVKENDEIEAGIHGLVSMTFKVEKPEY
notes: recombinant human wild-type FAHD1 expressed in E. coli
The term Km denotes the substrate concentration at which the rate is half of its maximum. As for B1, in data set [1], the Michaelis constant (Km) is 32 µM and the “Vmax of oxaloacetate degradation” value is 0.21 µmol/min/mg.
